Measurements reported in patent publication US20170189510A1.
Each block holds one binder with its values, some of them ahead of it.

Biological target: HLA-A*24 (human)
Test: UV-ligand exchange, anti-b2m ELISA

Binder: LYITEPKTI [peptide SEQ ID No 287 …]
peptide exchange yield: 50 to 75%

Binder: AYVVFVSTL [peptide SEQ ID No 207 …]
peptide exchange yield: 20 to 49%

Binder: RYAEEVGIF [peptide SEQ ID No 199 …]
peptide exchange yield: 50 to 75%

Binder: YYGPSLFLL [peptide SEQ ID No 200 …]
peptide exchange yield: 50 to 75%

Binder: VYQGHTALL [peptide SEQ ID No 277 …]
peptide exchange yield: > 75%

Binder: YFIDSTNLKTHF [peptide SEQ ID No 269 …]
peptide exchange yield: 50 to 75%

Binder: HYPPVQVLF [peptide SEQ ID No 285 …]
peptide exchange yield: 50 to 75%

Binder: TYKDEGNDYF [peptide SEQ ID No 209 …]
peptide exchange yield: 50 to 75%

Binder: TYELRYFQI [peptide SEQ ID No 204 …]
peptide exchange yield: > 75%

Binder: IYATEAHVF [peptide SEQ ID No 201 …]
peptide exchange yield: 50 to 75%

Further lines, results first:

peptide exchange yield: 50 to 75%
Binder: QYLGQIQHI [peptide SEQ ID No 268 …]

peptide exchange yield: 20 to 49%
Binder: PYRLIFEKF [peptide SEQ ID No 281 …]

peptide exchange yield: > 75%
Binder: VYWDSAGAAHF [peptide SEQ ID No 202 …]

peptide exchange yield: 50 to 75%
Binder: NYYEVHKELF [peptide SEQ ID No 270 …]

peptide exchange yield: 50 to 75%
Binder: TFSVSSHLF [peptide SEQ ID No 222 …]

peptide exchange yield: 50 to 75%
Binder: YYKSTSSAF [peptide SEQ ID No 218 …]
